The supplement of paper PMC9112550, “Optimization of the antimicrobial peptide Bac7 by deep mutational scanning” (BMC Biology, 2022)

Test system: Escherichia coli TOP10
Test: shrunken log2 fold change of peptide-encoding DNA abundance (4.5 h post-induction vs induction); higher = less antimicrobial activity (less host growth inhibition)
Conditions: time post-induction: 4.5 h; library: site-saturation at positions 5, 18, 19, 20
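Also: peptides expressed intracellularly from a pBAD plasmid library in pooled LB shake-flask culture, induced with 0.3% L-arabinose, DNA abundance read by NGS, three biological replicates, DESeq2 with apeglm shrinkage.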

Sequence | shrunken log2 fold change
RRIRDRPPRLPRPRPRPPWFPRP | 0.336
RRIRCRPPRLPRPRPRPYMVPRP | -0.462
RRIRDRPPRLPRPRPRPMCMPRP | 0.0237
RRIRIRPPRLPRPRPRPPVWPRP | 0.187
RRIRLRPPRLPRPRPRPAGDPRP | 0.297
RRIRNRPPRLPRPRPRPKVPPRP | -0.129
RRIRVRPPRLPRPRPRPWICPRP | -0.358
RRIRQRPPRLPRPRPRPADNPRP | -0.536
RRIRVRPPRLPRPRPRPHVWPRP | -0.145
RRIRARPPRLPRPRPRPMATPRP | 0.601
RRIRGRPPRLPRPRPRPEYIPRP | 0.252
RRIRERPPRLPRPRPRPKNLPRP | 0.072
RRIRSRPPRLPRPRPRPESGPRP | 0.351
RRIRMRPPRLPRPRPRPNREPRP | 0.0182
RRIRFRPPRLPRPRPRPLASPRP | -0.0784
RRIRTRPPRLPRPRPRPHRVPRP | 0.0498
RRIRTRPPRLPRPRPRPAETPRP | 0.139
RRIRVRPPRLPRPRPRPFTNPRP | -0.0456
RRIRQRPPRLPRPRPRPHTCPRP | -0.325
RRIRHRPPRLPRPRPRPYISPRP | -0.0543
RRIRWRPPRLPRPRPRPGHAPRP | 0.234
RRIRMRPPRLPRPRPRPGIGPRP | 0.638
RRIRERPPRLPRPRPRPTVYPRP | -0.194

Sequence | shrunken log2 fold change
RRIRIRPPRLPRPRPRPSWKPRP | -0.242
RRIRHRPPRLPRPRPRPQELPRP | -0.122
RRIRRRPPRLPRPRPRPYYWPRP | -0.0449
RRIRQRPPRLPRPRPRPNHHPRP | -0.864
RRIRARPPRLPRPRPRPRRWPRP | 0.739
RRIRARPPRLPRPRPRPVVEPRP | 0.322
RRIRIRPPRLPRPRPRPGLLPRP | -0.0591
RRIRQRPPRLPRPRPRPSSNPRP | -0.222
RRIRQRPPRLPRPRPRPSADPRP | 0.354
RRIRHRPPRLPRPRPRPWIIPRP | 0.00956
RRIRDRPPRLPRPRPRPIDNPRP | 0.131
RRIRERPPRLPRPRPRPMDHPRP | -0.0102
RRIRFRPPRLPRPRPRPFVFPRP | -0.454
RRIRYRPPRLPRPRPRPNFCPRP | -0.00468
RRIRHRPPRLPRPRPRPTRRPRP | 0.271
RRIRSRPPRLPRPRPRPMVSPRP | 0.0287
RRIRIRPPRLPRPRPRPTPYPRP | -0.44
RRIRFRPPRLPRPRPRPRLMPRP | -0.0982
RRIRSRPPRLPRPRPRPINAPRP | -0.377
RRIRTRPPRLPRPRPRPYLDPRP | -0.381
RRIRGRPPRLPRPRPRPRKGPRP | 0.148
RRIRRRPPRLPRPRPRPHMGPRP | -0.15
RRIRERPPRLPRPRPRPIGQPRP | 0.000367

Sequence | shrunken log2 fold change
RRIRTRPPRLPRPRPRPDLTPRP | 0.129
RRIRPRPPRLPRPRPRPCPLPRP | -0.208
RRIRVRPPRLPRPRPRPSCTPRP | -0.175
RRIRNRPPRLPRPRPRPQPDPRP | -0.0718
RRIRNRPPRLPRPRPRPIAHPRP | -0.0737
RRIRGRPPRLPRPRPRPSGTPRP | 0.913
RRIRCRPPRLPRPRPRPPYRPRP | -0.0439
RRIRWRPPRLPRPRPRPWNFPRP | -0.188
RRIRMRPPRLPRPRPRPCDMPRP | 0.195
RRIRRRPPRLPRPRPRPVGMPRP | 1.08
RRIRVRPPRLPRPRPRPKVYPRP | -0.433
RRIRYRPPRLPRPRPRPSQFPRP | -0.257
RRIRARPPRLPRPRPRPHGDPRP | 0.362
RRIRARPPRLPRPRPRPFMWPRP | 0.065
RRIRNRPPRLPRPRPRPSDDPRP | -0.0915
RRIRHRPPRLPRPRPRPLHMPRP | -0.0732
RRIRQRPPRLPRPRPRPMHEPRP | 0.187
RRIRGRPPRLPRPRPRPWDRPRP | -0.141
RRIRLRPPRLPRPRPRPFFAPRP | 0.169
RRIRFRPPRLPRPRPRPACCPRP | 0.229
RRIRNRPPRLPRPRPRPSVYPRP | -0.172
RRIRIRPPRLPRPRPRPAKFPRP | -0.158
RRIRIRPPRLPRPRPRPTQMPRP | 0.565

Sequence | shrunken log2 fold change
RRIRIRPPRLPRPRPRPQCCPRP | -0.0258
RRIRTRPPRLPRPRPRPNVIPRP | -0.372
RRIRCRPPRLPRPRPRPNRMPRP | 2.23
RRIRNRPPRLPRPRPRPRAMPRP | 0.37
RRIRFRPPRLPRPRPRPNPMPRP | -0.136
RRIRSRPPRLPRPRPRPKAWPRP | 0.148
RRIRFRPPRLPRPRPRPCVKPRP | -0.123
RRIRQRPPRLPRPRPRPRVFPRP | -0.0984
RRIRPRPPRLPRPRPRPTHKPRP | 0.283
RRIRPRPPRLPRPRPRPTIDPRP | -0.454
RRIRIRPPRLPRPRPRPHKLPRP | -0.552
RRIRSRPPRLPRPRPRPSYGPRP | -0.0636
RRIRCRPPRLPRPRPRPKDKPRP | 0.401
RRIRPRPPRLPRPRPRPKFYPRP | -0.351
RRIRTRPPRLPRPRPRPGIGPRP | 0.17
RRIRMRPPRLPRPRPRPWMRPRP | 0.7
RRIRQRPPRLPRPRPRPQEFPRP | -0.0104
RRIRIRPPRLPRPRPRPDSKPRP | -0.325
RRIRLRPPRLPRPRPRPHETPRP | -0.236
RRIRLRPPRLPRPRPRPSAGPRP | -0.0364
RRIRYRPPRLPRPRPRPHAIPRP | -0.268
RRIRQRPPRLPRPRPRPYTRPRP | -0.0062
